Legend:
[1] = target: VpsU, low-molecular-weight phosphotyrosine protein phosphatase; experiment: SEC
[2] = target: VpsO-503^(E519A, R522A, R525A) kinase domain; experiment: SEC-MALS; 25 uL of each VpsO protein at 1.5 mg/mL injected on a silica-based SEC analytical HPLC column; 25 mM Tris pH 8.0, 50 mM NaCl, 1 mM DTT; room temperature

Substance | stoichiometry N [1] | stoichiometry N [2]
VpsU, low-molecular-weight phosphotyrosine protein phosphatase (enzyme) | 2 | –
VpsO-503^(E519A, R522A, R525A) kinase domain (domain or fragment) | – | 2
